From publication PMC9231368, “Production of GMP-Compliant Clinical Amounts of Copper-61 Radiopharmaceuticals from Liquid Targets” (Pharmaceuticals, 2022)
Positions of bridges follow the written chain, without caps; N, C: chain ends. Non-standard residues stand in square brackets, D forms with d. Residues, ends and D or L forms follow the SMILES beside them. *: point of attachment. DOTA = O=C(O)CN1CCN(CC(=O)O)CCN(CC(=O)*)CCN(CC(=O)O)CC1; 1Nal = N[C@@H](Cc1cccc2ccccc12)C(=O)O; Thr(ol) = C[C@@H](O)[C@H](N)CO

Assay: Radiolysis during labelling reaction, with and without EtOH as radiolytic scavenger
Type: physicochemical
Settings: final product vial, radio-HPLC, single test
From the text: The considerably high percentage of radiolysis in the final product vial (FPV), caused by the presence of free radicals in solution (e.g., superoxide or hydroxyl radicals), impaired the establishment of the most favourable labelling conditions. Although not explicitly measured, for higher activity concentrations, the radiolysis percentage was anticipated to increase. Several compounds are known to act as radiolytic stabilizers and protect against radiolysis. Antioxidant compounds, such as ascorbic acid (AA) and gentisic acid (GA), are commonly known to protect against radiolysis and are mainly described in the literature for radiolabelling biomolecules with β^--emitting radionuclides (e.g., yttrium-90 and luthetium-177). Notwithstanding, these compounds might have a negative impact on copper-based radiopharmaceuticals, given the redox properties of copper. […] To evaluate the applicability of EtOH as a radiolytic scavenger for ^61Cu-based radiopharmaceuticals, a single test with and without EtOH was performed before establishing optimal labelling conditions. […] Compared with the labelling of [^61Cu]Cu-DOTA-NOC without EtOH (Figure 4A), it is evident that there is a significant decrease in the rate of radiolysis using the ethanol-based method (Figure 4B–D). […] Based on these findings, the use of EtOH was implemented in all further labelling formulations to act as a radiolytic stabilizing agent during the labelling reaction.
Figure 4 Representative chromatograms of [^61Cu]Cu-DOTA-NOC, [^61Cu]Cu-DOTA-TOC and [^61Cu]Cu-DOTA-TATE without (A) and with (B–D) using EtOH (maximum 5 vol% EtOH) during the labelling reaction. Two different HPLC methods were used, as described in Table 4. For a more practical comparative analysis between chromatograms, raw data was normalised as percentage of total radioactivity. Percentage of radiolysis is the ratio of radiolysis counts to total counts. TEXT PRINTED IN THE PICTURE: (A) [^61Cu]Cu-DOTA-NOC: Radiolysis: > 15% | (B) [^61Cu]Cu-DOTA-NOC: Radiolysis: < 5% | (C) [^61Cu]Cu-DOTA-TOC: Radiolysis: < 1% | (D) [^61Cu]Cu-DOTA-TATE: Radiolysis: < 1%
RCP was measured by HPLC (Agilent 1200 series HPLC system, Agilent Technologies, Santa Clara, CA, USA) equipped with a GABIStar NaI(Tl) radiometric detector (Raytest Isotopenmessgeraete GmbH, Straubenhardt, Germany) (20 μL sample volume). Two different methods (Table 4) were used, one for [^61Cu]Cu-DOTA-NOC (Method A) and a second to evaluate both [^61Cu]Cu-DOTA-TATE and [^61Cu]Cu-DOTA-TOC (Method B). An ACE 3 C18 150 × 3 mm HPLC column (ACE, Reading, UK) was used in both methods, and the flow was fixed at 0.6 mL/min.

[1] = labelling with EtOH up to 300 μL (maximum 5 vol% EtOH)

Compound	Radiolysis (ratio of radiolysis counts to total counts) [1]	Radiolysis (ratio of radiolysis counts to total counts) (labelling without EtOH)
C[C@@H](O)[C@@H]1NC(=O)[C@H](CCCCN)NC(=O)[C@@H](Cc2c[nH]c3ccccc23)NC(=O)[C@H](Cc2cccc3ccccc23)NC(=O)[C@@H](NC(=O)[C@@H](Cc2ccccc2)NC(=O)CN2CCN(CC(=O)O)CCN(CC(=O)O)CCN(CC(=O)O)CC2)CSSC[C@@H](C(=O)N[C@H](CO)[C@@H](C)O)NC1=O [[^61Cu]Cu-DOTA-NOC, metal not drawn] ({DOTA}-[dF]C[1Nal][dW]KTC[Thr(ol)]; disulfide 2-7 (inferred))	less than 5%	more than 15%
C[C@@H](O)[C@H](NC(=O)[C@@H]1CSSC[C@H](NC(=O)[C@@H](Cc2ccccc2)NC(=O)CN2CCN(CC(=O)O)CCN(CC(=O)O)CCN(CC(=O)O)CC2)C(=O)N[C@@H](Cc2ccc(O)cc2)C(=O)N[C@H](Cc2c[nH]c3ccccc23)C(=O)N[C@@H](CCCCN)C(=O)N[C@@H]([C@@H](C)O)C(=O)N1)C(=O)O [[^61Cu]Cu-DOTA-TATE, metal not drawn]	less than 1%	–
C[C@@H](O)[C@@H]1NC(=O)[C@H](CCCCN)NC(=O)[C@@H](Cc2c[nH]c3ccccc23)NC(=O)[C@H](Cc2ccc(O)cc2)NC(=O)[C@@H](NC(=O)[C@@H](Cc2ccccc2)NC(=O)CN2CCN(CC(=O)O)CCN(CC(=O)O)CCN(CC(=O)O)CC2)CSSC[C@@H](C(=O)N[C@H](CO)[C@@H](C)O)NC1=O [[^61Cu]Cu-DOTA-TOC, metal not drawn]	less than 1%	–
